The source of these data is US20250122303A1 (HUMMINGBIRD BIOSCIENCE PTE, published 2025).

As a reminder, the Kd is a measure of binding affinity in units of concentration. Lower therefore signals a tighter complex. One may read the koff as the rate constant with which the complex falls apart. Read a high koff as a short-lived complex. What is called kon is the second-order rate constant of association. Read a low kon as slow association.

Experiment [1] deals with T1, His-tagged FcγRIIIa (V158) (human, UniProt P08637 17-208).
T1 construct: not shown: His tag
In words: BLI (Octet QK384), His-tagged FcgRIIIa (V158) on anti-Penta-HIS tips, antibody 500 nM to 15.6 nM in solution, global 1:1 fit. The protocol: (§1) All measurements were performed at 25° C. with agitation at 1000 rpm. […] Sensograms were referenced for buffer effects and then fitted using the Octet QK384 user software (Pall ForteBio, USA). Kinetic responses were subjected to a global fitting using a one site binding model to obtain values for association (Kₒₙ), dissociation (Koff) rate constants and the equilibrium dissociation constant (KD). Only curves that could be reliably fitted with the software (R²>0.90) were included in the analysis.

The target of experiment [2] is T2, human HER3 expressed on cells (HEK293 HER3 O/E cells) (human, UniProt P21860 20-1342).
T2 construct: Also used here for HER3 on U2OS cells of the PathHunter kit and on cancer cell lines; also called HEK293 cells transfected with vector encoding human HER3; human HER3-expressing cells
In words: flow cytometry, HEK293 cells overexpressing human HER3, 20 ug/ml antibody, FITC anti-Fc secondary; same antibody on WT HEK293: 8.15.

The target of experiment [3] is T2, human HER3 expressed on cells (HEK293 …). Description: flow cytometry on HEK293T HER3 O/E cells, 10 ug antibody as printed, FITC-conjugated anti-Fc secondary. The protocol:
The cells were washed with buffer (PBS with 2 mM EDTA and 0.5% BSA) and resuspended in FITC-conjugated anti-FC antibody (Invitrogen, USA) at 10 μg/ml for 20 min at 4° C. Cells were washed again and resuspended in 200 μL of FACS flow buffer (PBS with 5 mM EDTA) for flow cytometric analysis using MACSQuant 10 (Miltenyi Biotec, Germany). Unstained WT and transfected HEK293 cells were included in the analysis as negative controls. After acquisition, all raw data were analyzed using Flowlogic software. Cells were gated using forward and side scatter profile percentage of positive cells was determined for native and overexpressing cell populations.
In general terms: In flow cytometry, cells or beads pass a laser one at a time.

The target is the same in experiment [4]. Description: flow cytometry, HEK293 cells overexpressing human HER3, 20 ug/ml antibody, FITC anti-Fc secondary; same antibody on WT HEK293: 1.91.
Experiment [5] addresses T3, His-tagged human HER3 (human, UniProt P21860 20-643).
T3 construct: Antigen of the BLI experiments and of the HER2-Fc dimerisation ELISA; also called HER3 His; not shown: His tag
Description: BLI (Octet QK384), antibody captured on AHC sensors, His-tagged human HER3 in solution, without NRG1. In general terms: BLI is a label-free optical method that tracks binding on a fibre tip over time.

The target in experiment [6] is T3, His-tagged human HER3. In words: BLI (Octet QK384), antibody on anti-human IgG capture tips, His-tagged human HER3 in solution, global one-site fit. The procedure, abridged: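 Binding of human HER3 to captured IgG1 anti-HER3 clones is read by interferometry at 25° C. Global one-site fitting yields rate constants and KD.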
The target of experiment [7] is T3, His-tagged human HER3. Description: BLI (Octet QK384), antibody on anti-human IgG capture tips, His-tagged human HER3 35-278 nM, global 1:1 fit. On the procedure:
as §1, with “The anti-HER3 antibody clones in IgG1 format were analysed for binding affinity to human HER3. Bio-Layer Interferometry (BLI) experiments were performed using the Octet QK384 system (ForteBio). anti-Human IgG Capture (AHC) Octet sensor tips (Pall ForteBio, USA) were used to anti-HER3 antibodies (25 nM). All” for “All”

In experiment [8] the target is T3, His-tagged human HER3. Description: BLI (Octet QK384), antibody on anti-human IgG capture tips, His-tagged human HER3 in solution, global 1:1 fit, R^2 = 0.9955, kon Error 5.62E+03; Response -0.0012 / 0.1507 / 0.3396 / 0.4384 at 35 / 69 / 139 / 278 nM. On the procedure:
as §1, with “The anti-HER3 antibody clones in IgG1 format were analysed for binding affinity to human HER3. Bio-Layer Interferometry (BLI) experiments were performed using the Octet QK384 system (ForteBio). anti-Human IgG Capture (AHC) Octet sensor tips (Pall ForteBio, USA) were used to anti-HER3 antibodies (25 nM). All” for “All”

Experiment [9] addresses T3, His-tagged human HER3. In words: BLI (Octet QK384), antibody on anti-human IgG capture tips, His-tagged human HER3 35-278 nM, global 1:1 fit; kdis Error 1.27E-04. The protocol: as §1, with “The anti-HER3 antibody clones in IgG1 format were analysed for binding affinity to human HER3. Bio-Layer Interferometry (BLI) experiments were performed using the Octet QK384 system (ForteBio). anti-Human IgG Capture (AHC) Octet sensor tips (Pall ForteBio, USA) were used to anti-HER3 antibodies (25 nM). All” for “All”

Experiment [10] has as its target T3, His-tagged human HER3. Description: BLI (Octet QK384), antibody on anti-human IgG capture tips, His-tagged human HER3 in solution, global 1:1 fit, R^2 = 0.9957, kon Error 3.75E+03; Response 0.0006 / 0.0697 / 0.1929 / 0.3524 at 35 / 69 / 139 / 278 nM. The protocol:
as §1, with “The anti-HER3 antibody clones in IgG1 format were analysed for binding affinity to human HER3. Bio-Layer Interferometry (BLI) experiments were performed using the Octet QK384 system (ForteBio). anti-Human IgG Capture (AHC) Octet sensor tips (Pall ForteBio, USA) were used to anti-HER3 antibodies (25 nM). All” for “All”

Experiment [11] concerns the target T3, His-tagged human HER3. Description: BLI (Octet QK384), antibody on anti-human IgG capture tips, His-tagged human HER3 in solution, global 1:1 fit, R^2 = 0.9949, kon Error 6.34E+03; Response 0.0096 / 0.1318 / 0.3036 / 0.3995 at 35 / 69 / 139 / 278 nM. On the procedure:
as §1, with “The anti-HER3 antibody clones in IgG1 format were analysed for binding affinity to human HER3. Bio-Layer Interferometry (BLI) experiments were performed using the Octet QK384 system (ForteBio). anti-Human IgG Capture (AHC) Octet sensor tips (Pall ForteBio, USA) were used to anti-HER3 antibodies (25 nM). All” for “All”

The target of experiment [12] is T3, His-tagged human HER3. Description: BLI (Octet QK384), antibody on anti-human IgG capture tips, His-tagged human HER3 35-278 nM, global 1:1 fit; kdis Error 1.17E-04. The protocol: as §1, with “The anti-HER3 antibody clones in IgG1 format were analysed for binding affinity to human HER3. Bio-Layer Interferometry (BLI) experiments were performed using the Octet QK384 system (ForteBio). anti-Human IgG Capture (AHC) Octet sensor tips (Pall ForteBio, USA) were used to anti-HER3 antibodies (25 nM). All” for “All”

Some results are limits rather than exact numbers.

B1: 10D1 comprising GASDALIE and LCKC substitutions in CH2 region (antibody, human IgG1, kappa)
heavy: DVQLQESGPDLVKPSQSLSLTCTVTGYSITSGYSWHWIRQFPGNKLEWMGSIHYSGGTNYNPSLKSRISITRDTSKNQFFLQLNSVTTEDTATYFCARMTTAPRYPFDYWGQGTTLTVSSASTKGPSVFPLAPSSKSTSGGTAALGCLVKDYFPEPVTVSWNSGALTSGVHTFPAVLQSSGLYSLSSVVTVPSSSLGTQTYICNVNHKPSNTKVDKKVEPKSCDKTHTCPPCPAPELLAGPDVFCFPPKPKDTLMISRTPEVTCVVVDVSHEDPEVKFNWYVDGVEVHNAKTKPREEQYNSTYRVVSVLTVLHQDWLNGKEYKCKVSNKALPLPEECTISKAKGQPREPQVYTLPPSRDELTKNQVSLTCLVKGFYPSDIAVEWESNGQPENNYKTTPPVLDSDGSFFLYSKLTVDKSRWQQGNVFSCSVMHEALHNHYTQKSLSLSPGK
light: DIVMTQSQKFMSTSVGDRVSVTCKASQIVGSNVAWYQQKPGQSPKPLIYSASYRYSGVPDRFTASGSGTDFTLTITNVQSEDLAEYFCQQYSSHPLTFGAGTKLELKRTVAAPSVFIFPPSDEQLKSGTASVVCLLNNFYPREAKVQWKVDNALQSGNSQESVTEQDSKDSTYSLSSTLTLSKADYEKHKVYACEVTHQGLSSPVTKSFNRGEC
notes: also called Fc engineered 10D1 variant
Regarding B1, the Kd in experiment [1] is 34 nM. This lies in the double-digit nanomolar range.

B2: LJM716 (antibody, V domains shown)
VH: EVQLLESGGGLVQPGGSLRLSCAASGFTFSSYAMSWVRQAPGKGLEWVSAINSQGKSTYYADSVKGRFTISRDNSKNTLYLQMNSLRAEDTAVYYCARWGDEGFDIWGQGTLVTVSS
VL: DIQMTQSPSSLSASVGDRVTITCRASQGISNWLAWYQQKPGKAPKLLIYGASSLQSGVPSRFSGSGSGTDFTLTISSLQPEDFATYYCQQYSSFPTTFGQGTKVEIK
Turning to B2, the “% Parent (HE3 positive)” value in [2] was 98.7%. Further, the “% Parent (HER3 positive)” value in [3] was 74.4%. In [4], the “% Parent (HER3 positive)” value was determined as 99.5%. In [5], this molecule came in with a Kd of under 0.001 nM, a koff of under 1e-07 s⁻¹ and a kon of 79800 M⁻¹ s⁻¹.

B3: anti-HER3 clone 10D1_c75 IgG1 (antibody, V domains shown)
VH: DVQLQEWGAGLLKPSETLSLTCAVTGYSITSGYSWHWIRQFPGNGLEWIGSIHYSGGTNYNPTLKSRITISRDTSKNQFSLKLSSVTAADTAVYFCARMTTAPRYPFDYWGQGTLVTVSS
VL: DIVMTQSPSSLSASVGDLVTITCKASQIVGSNVAWYQMKPGKSPKPLIYSASYLYFGVPSRFSGSGSGTDFTLTISSLQPEDVAEYFCQQYSSHPLTFGPGTKVEIKR
notes: Humanised 10D1 variant, IgG1/kappa
Molecule B3 had a Kd in [6] of under 0.001 nM. For the same molecule, the off-rate (koff) in [7] was under 1e-07 s⁻¹. The molecule also yielded a kon in experiment [8] of 163000 M⁻¹ s⁻¹.

B4: anti-HER3 clone 10D1_c85o1 IgG1 (antibody, V domains shown)
VH: DVQLQEWGAGLLKPSETLSLTCAVTGYSITSGYSWHWIRQFPGKGLEWIGSIRYSGGTNYNPSLKSRITISRDTSKNQFSLKLGSVTAADTAVYFCARETTAPRYPFDYWGQGTLVTVSS
VL: DIVMTQSPSSLSASVGDRVTITCKASQIVGSNVAWYQQKPGKSPKPLIYSARYQYSGVPFRFSGSGSGTDFTLTISSLQPEDVATYYCQQYSSHPLTFGPGTKVEIKR
notes: Humanised 10D1 variant, IgG1/kappa; also called 10D1_c8501
Turning to B4, in experiment [9], the koff is 0.0017 s⁻¹. Moreover, the affinity in experiment [6], expressed as Kd, was 18.2 nM. In addition, in experiment [10], the kon is 93600 M⁻¹ s⁻¹.

B5: anti-HER3 clone 10D1_c77 IgG1 (antibody, V domains shown)
VH: DVQLQEWGAGLLKPSETLSLTCAVTGYSITSGYSWHWIRQFPGNGLEWIGSIHYSGGTNYNPSLKSRITISRDTSKNQFSLKLSSVTAADTAVYFCARMTTAPRYPFDYWGQGTLVTVSS
VL: VIVMTQSPSSLSASVGDRVTITCKASQIVGPNVAWYQQKPGKSPKPLIYSASYGYSDVPSRFSGSGSGTDFTLTISSLQPEDVAEYFCQQYSTHPLTFGPGTKVEIKR
notes: as for B3
With B5, in experiment [11], the kon is 179000 M⁻¹ s⁻¹. Further, in [6], the affinity, expressed as Kd, was 1.93 nM. In [12], the koff stood at 0.000346 s⁻¹.
